From the domain aggregation screens of Martell et al. (2025)

Assay: soluble fraction after stress (log2 fold change); higher = more stays soluble; pooled small domains, quantitative proteomics
Details: stress: 75 degC
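Note: 20 min heating vs room temperature control held 20 min.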

Row | Sequence | soluble fraction (log2)
1 | HMEWTVEKQAAATLNAWMRKNSEMTSEKKVAVAAGIGPATVNRIMKAEVSTTIGVLSSLARAFGHEAYEMI | -0.0249
2 | HMEYDEVVVVKQIIPKGKNTMVAHLKHLKEHGETGFLKQAVGYLKLHASEIPFSVDAVISEVH | -0.253
3 | HMEYDYKVIDFFKDYYSYLNYQEIEPNILDKQLTTLTEEESAKIAGIMKLDYEDFTRGIEIVTGS | -0.536
4 | HMEYLIENYGSVINQARMKKGMTQEQLSSKTGVSQAYIRSIESQNMKPTDAVARKIEFELGIKLFE | -1.05
5 | HMEYSKSIKRLREDKNLTVEELAKRLSLDVEEIQKAEDGEDVDQKTLEAIARYFGVQYDSLVEGTAKSK | -0.0335
6 | HMEYTTEELDSLLKLYFQTHESINRNEFEQLTSYTRTTASRRLKTLVQAGKLQNIGLYRFPVYKPTEGNF | -2.82
7 | HMEYYWHQLKGLEVVNTRGESLGRVRRLLETGANDVLVLEGEQERLIPYVPDTIKQVDLAKGLIEVAWDRD | -0.17
8 | HMFAADIGVGIVDADSLRVRSEPSTGAPIVTSLLRGTQVTVQEKLDGWYRITYNDVSGFVSAEYLIFTADE | -0.358
9 | HMFAGEWKQDASGWWYQNDDGSFTRNGWQNISGKQYYFNENGYMLHDTTTPDGKQVGSDGSLV | 0.0573
10 | HMFAKVEGITGDILDKLQQQRGFLALSDKSSPEAIYDTFGVSKKVFKQAIGTLFKQQKISIEAEGIRLV | -1.56
11 | HMFASSADGVEGLKTNPIFASTKEKSDAGKLLYTRYLAIGIFRMLELAKATDPKALEALVEAGG | 0.259
12 | HMFDDEELDTFAGRQSDSYDQQEVEQFSDVLHTMRQDEVQAWWRSLTLRGISLPDELKDEVIML | -0.481
13 | HMFDDLSTNLRDLAHNYIEKYSPSKQQLKVFLLKKYLMKFKGSKTKKEISEIIDKIISNLEENKYLNDEL | 0.36
14 | HMFDFMVLGQAIKKARESKEMTREQLAEILDVAPRHIQSIENEGQYPSFPLFIRLVTMFNISVDQY | -2.31
15 | HMFDGNIKIVEDAFSVTIVARGTEVKISGDPENVYLASKTVEGLLTLIDKGEAITDQRVHYVIGLVREG | -2.45
16 | HMFDGTLSIYPNPSKGIFNLDLLNVKDGEYTITVDNLLGQEVYSEIRNVINSSSKTLDLSNLTKGV | -0.204
17 | HMFDLKKIYGTILDETKSSLLLSTDDGREVQIIKTDGTEVLASGLGVYVEVAYRDETPDGYPIALTI | -0.41
18 | HMFDTVKIGKRIAELRKKRDMTQFELADRLGISYQAVSNWERGNSMPDIAKLPELAEIFGVTVDEILG | 0.283
19 | HMFEARNTTFSEDGKTITETYGVKRIETEFVSDSTIVQKLYDNDVLTKTKTITFSADGLSIKEDV | -0.0561

Row | Sequence | soluble fraction (log2)
20 | HMFEDYNELDEYLETRFIPTYVLLKQRKNANGEIDHFPSIRLQHIMALKLSEAELEHVMNYLKEKNIRVG | -1.68
21 | HMFEKVKLTLTIPSKYSGSTYSALRNRMNKFSKEEWLSNGDLKIEIEVTGGQKTDIYTLINKLTNGEAIIE | -1.25
22 | HMFELDELDLVILKNLANGLSKKQIRVKLKKMDLRPNSESAIDKRVSKLFDEFGAKNSTELVAKLIREGL | -2.71
23 | HMFELTVGTPIRVIREPYFGKLGTVTELPAQLMVVESGTEVRVLKAKIEGEGEVLVPRANVEIIATG | -1.38
24 | HMFELVKISENIPIRDLAETLKTTPNEIIKELMVFGVLANINQTLNFDLASKVADKLGFEVELL | -0.266
25 | HMFEMPTSLVRTLSAIAIKQPVMQSEIIKLRGAGAYDHIKELIIRELVHRKEEGRSPILTTTKKFQEYFRL | -2.52
26 | HMFERIYVFSRDGDIIELPKGSTVLDFAYHVHTHVGNRAQAARVNKRYVPLTYQLKTGEQVEIIIS | -1.44
27 | HMFEYDEEEYEKLGPNADLTIKSMTDWGQSLVRKGVWSESDFEEFKIMGGTAQGLRALQKVRSYY | -0.649
28 | HMFFAGLSPEAARTLDSLPLHSWSSVEQIARQAGLNIETVRKELGLLELSGIALSRQGRFRRA | -1.07
29 | HMFFFILNKGAKSGGEITHAVLNGSIVSKPAGWDAFHGLVLAKEKLSSEEIQRQMKELGVEMEIVPL | -2.4
30 | HMFGDQMQSYLSRLSQIDVDIIALKYGDNFTYREIGLILEMSEDSVRQRAVRARKKLETMIQKG | -3.31
31 | HMFGEDNLKSKEIKERVTEVAKHADDPVWIEARRKWKDENPDQNVKDYQQAYISGRIHELPWDVSYI | 0.117
32 | HMFGEKEFYQWIGKTAGEKFSGLPAAVIKSLYKYWREYNLSEEDIMGFIRQTELLPKRTPLDVELFFEK | -0.857
33 | HMFGELTPDTAKRFLLTAREQEMASLIAQGLTNKEIAFRLGISEATVRTHIYNLFQKVGVQSRIELLNVLH | -1.69
34 | HMFGNTGETSGTGVAFTRSPVDGENKIFGEFLVNAQGEDVVAGIRTPQPISEMEQAFPEVYSKFESVAEIL | 0.0261
35 | HMFHDALVSFAERRVIFMKELVNRLNEARKAYYEGESIMSDKEYDNLYDKLVKMELTTGVVLPNSPTEEVG | -1.33
36 | HMFIEHSKYKLSFKYNQLGKISNVINSNNGIIMDKHFDQNITLLAKLTENTFQEIIKHFPTIIIKRL | -3.74
37 | HMFIEPPSLEELERRLRGRGTETDDVVDMRMRTALVELSQKMEYDYRLVNDDLDEATRQLVAYVNEIAEQ | -0.0555
38 | HMFIPMTDAQRHLFANKLAKLPELSEYSRGTESYEDFAIRIADMLLEPPKFRMFYPLLEQLGF | -1.77
